The source of these data is patent US20240335558A1, “ISOLATED POLYPEPTIDE AND USE THEREOF” (GLYCO-THERAPY BIOTECHNOLOGY CO., LTD., priority 2021, published 2024).

Common to all, as to assay type: biochemical
Data set [1] deals with Trastuzumab-(Galβ1,4)GlcNAc. Nature of the data set: HpFT-2HR and HpFT-4HR transferring GDP-FAmSucMMAE to Trastuzumab-(Galβ1,4)GlcNAc. The conditions noted are these: donor 1 mM, enzyme 0.5 mg/mL, 30° C., 1 h and 2 h; FIG. 9. As for the experimental part: (§1) To 40 mM Tris-HCl (pH 7.5) buffer were added Trastuzumab-(Fucα1,6)(Galβ1,4)GlcNAc (2 mg/mL final), GDP-FAmP4Biotin (1 mM final), MgCl2 (20 mM final), and different HpFT enzymes (HpFT-4HR, HpFT-4HR(M4), HpFT-4HR(M7), HpFT-6HR, HpFT-3HR, HpFT-2HR, HpFT-1HR or HpFT-0HR) (0.5 mg/mL final) in sequence, and the resulting mixed solution was allowed to react at 30° C. for 1 h. Three parallels were set up for each group. After the reaction time point was reached, to the reaction solution was added 10 mM LacNA, and the reaction was terminated by a desalting column (Zeba™ Spin Desalting Columns/2 ml/40K, Thermo Fisher Scientific), and finally mass spectrometry was carried out and % of conversion was calculated. % of conversion=(MAR0 peak intensity*0+MAR1peak intensity*1+MAR2 peak intensity*2)/2* (MAR0 peak intensity+MAR1 peak intensity+MAR2 peak intensity)*100%.
To 40 mM Tris-HCl (pH 7.5) buffer were added Trastuzumab-(Galβ1,4)GlcNAc (2 mg/mL final), GDP-FAmSucMMAE (1 mM final), MgCl2 (20 mM final), and HpFT-2HR or HpFT-4HR (0.5 mg/mL final) in sequence, and the resulting mixed solution was allowed to react at 30° C. for 1 h and 2 h. Three parallels were set up for each group. […]

Data set [2] concerns Trastuzumab-(GalNAzβ1,4)GlcNAc. The experiment in a line: Transfer of GDP-FAmP4Biotin to Trastuzumab-(GalNAzβ1,4)GlcNAc by different HpFTs. The settings on record: donor GDP-FAmP4Biotin 1 mM, enzyme 0.5 mg/mL, 30° C., 3 h; FIG. 4.
In data set [3] the test system is Trastuzumab-(GalNAzβ1,4)GlcNAc. Nature of the data set: HpFT-2HR and HpFT-4HR transferring GDP-FAmSucMMAE to Trastuzumab-(GalNAzβ1,4)GlcNAc. The settings on record: donor 1 mM, enzyme 0.5 mg/mL, 30° C., 3 h and 6 h; FIG. 8A. On the procedure:
as §1
(§2) To 40 mM Tris-HCl (pH 7.5) buffer were added Trastuzumab-(GalNAzβ1,4)GlcNAc or Durvalumab-(GalNAzβ1,4)GlcNAc (2 mg/mL final), GDP-FAmSucMMAE (1 mM final), MgCl2 (20 mM final), and HpFT-2HR or HpFT-4HR (0.5 mg/mL final) in sequence, and the resulting mixed solution was allowed to react at 30° C. for 3 h and 6 h. Three parallels were set up for each group. […]

Data set [4] has as its system Trastuzumab-G2F. The experiment in a line: Transfer of GDP-FAmP4Biotin to Trastuzumab-G2F by different HpFTs (% of conversion by MS). The conditions noted are these: donor GDP-FAmP4Biotin 1 mM, enzyme 0.5 mg/mL, 30° C., 3 h; FIG. 1. On the procedure:
(§3) To 40 mM Tris-HCl (pH 7.5) buffer were added Trastuzumab-G2F (2 mg/mL final), GDP-FAmP4Biotin (1 mM final), MgCl2 (20 mM final), and different HpFT enzymes (HpFT-4HR, HpFT-4HR(M4), HpFT-4HR(M7), HpFT-6HR, HpFT-3HR, HpFT-2HR, HpFT-1HR, or HpFT-0HR) (0.5 mg/mL final) in sequence, and the resulting mixed solution was allowed to react at 30° C. for 3 h. Three parallels were set up for each group. After the reaction time point was reached, to the reaction solution was added 10 mM LacNAc (N-acetyl-D-lactosamine), and the reaction was terminated by a desalting column (Zeba™ Spin Desalting Columns/2 ml/40K, Thermo Fisher Scientific), and finally mass spectrometry was carried out and % of conversion was calculated. % of conversion=(MAR0 peak intensity*0+MAR1peak intensity*1+MAR2 peak intensity*2+MAR3 peak intensity*3+MAR4 peak intensity*4)/4* (MAR0 peak intensity+MAR1 peak intensity+MAR2 peak intensity+MAR3 peak intensity+MAR4 peak intensity)*100%.

Data set [5] has as its system Trastuzumab-G2F. Nature of the data set: HpFT-2HR and HpFT-4HR transferring GDP-FAmSucMMAE to Trastuzumab-G2F. The settings on record: donor 1 mM, enzyme 0.5 mg/mL, 30° C., 3 h and 6 h; FIG. 7A. As for the experimental part: as §3
(§4) To 40 mM Tris-HCl (pH 7.5) buffer were added Trastuzumab-G2F or Durvalumab-G2F (2 mg/mL final), GDP-FAmSucMMAE (1 mM final), MgCl2 (20 mM final), and HpFT-2HR or HpFT-4HR (0.5 mg/mL final) in sequence, and the resulting mixed solution was allowed to react at 30° C. for 3 h and 6 h. Three parallels were set up for each group. […]

The test system of data set [6] is Trastuzumab-(GalNAzβ1,4)GlcNAc. The experiment in a line: HpFT-2HR and HpFT-4HR transferring GDP-FAmP4Biotin or GDP-FAzP4Biotin to Trastuzumab-(GalNAzβ1,4)GlcNAc. The conditions noted are these: enzyme 0.5 mg/mL, 6 h, FIG. 6(B). On the procedure: as §1
To 40 mM Tris-HCl (pH 7.5) buffer were added Trastuzumab-(GalNAzβ1,4)GlcNAc (2 mg/mL final), GDP-FAmP4Biotin or GDP-FAzP4Biotin (1 mM final), MgCl2 (20 mM final), and HpFT-2HR or HpFT-4HR (0.5 mg/mL final) in sequence, and the resulting mixed solution was allowed to react at 30 t for 6 h. Three parallels were set up for each group. After the reaction time point was reached, to the reaction solution was added 10 mM LacNAc, and the reaction was terminated by a desalting column (Zeba™ Spin Desalting Columns/2 ml/40K, Thermo Fisher Scientific), and finally mass spectrometry was carried out and % of conversion was calculated. % of conversion was calculated according to Example 18.

The test system of data set [7] is Durvalumab-(GalNAzβ1,4)GlcNAc. Nature of the data set: HpFT-2HR and HpFT-4HR transferring GDP-FAmSucMMAE to Durvalumab-(GalNAzβ1,4)GlcNAc. The settings on record: donor 1 mM, enzyme 0.5 mg/mL, 30° C., 3 h and 6 h; FIG. 8B. As for the experimental part: as §1, §2
Another data set deals with Durvalumab-G2F. The experiment in a line: HpFT-2HR and HpFT-4HR transferring GDP-FAmSucMMAE to Durvalumab-G2F. The settings on record: donor 1 mM, enzyme 0.5 mg/mL, 30° C., 3 h and 6 h; FIG. 7B. On the procedure: as §3, §4

B1: HpFT-2HR: H. pylori α-1,3-fucosyltransferase variant: catalytically active domain, two heptapeptide repeat sequences and C-terminus fused His tag (protein)
chain: MFQPLLDAFIESASIEKMVSKSPPPPLKIAVANWWGDEEIKEFKKSVLYFILSQRYAITLHQNPNESSDLVFSNPLGAARKILSYQNTKRVFYTGENESPNFNLFDYAIGFDELDFNDRYLRMPLYYAHLHYEAELVNDTTAPYKLKDNSLYALKKPSHHFKENHPNLCAVVNDESDLLKRGFASFVASNANAPMRNAFYDALNSIEPVTGGGSVRNTLGYKVGNKSEFLSQYKFNLCFENSQGYGYVTEKILDAYFSHTIPIYWGSPSVAKDFNPKSFVNVHDFNNFDEAIDYIKYLHTHPNAYLDMLYENPLNTLDGKAYFYQDLSFKKILDFFKTILENDTIYHNNPFIFYRDLHEPLISIDDLRVNYDDLRVNYLEHHHHHH
modifications: Catalytically active domain of Helicobacter pylori Alpha-(1,3)-fucosyltransferase (GenBank No.AAD07710.1) with 2 heptapeptide repeats and a C-terminal His tag
Regarding B1, the “activity in catalyzing the transfer of GDP-FAmSucMMAE, as compared with HpFT-4HR” value (in data set [1]; in data set [3]; in the data set with Trastuzumab-G2F [5]; in data set [7]; in the data set with Durvalumab-G2F) was “significantly improved activity” in each case. Further, the “catalytic activity among the HpFT variants” value in data set [2] is given as “relatively high catalytic activity”; with Trastuzumab-G2F [4], “highest catalytic activity”. Also, the “catalytic activity as compared with HpFT-4HR (% of conversion)” value (in data set [2]; in the data set with Trastuzumab-G2F [4]) was “significantly improved catalytic activity” each time. In addition, the “activity in catalyzing the transfer of GDP-FAmP4Biotin relative to transfer of GDP-FAzP4Biotin” value in data set [6] (donor 1 mM) is recorded as “significantly higher”. Also, the “activity in catalyzing the transfer of GDP-FAmP4Biotin, as compared with HpFT-4HR” value in data set [6] (donor GDP-FAmP4Biotin 1 mM) is given as “significantly improved activity”. Further, the “activity in catalyzing the transfer of GDP-FAzP4Biotin, as compared with HpFT-4HR” value in data set [6] (donor GDP-FAzP4Biotin 1 mM) was “significantly improved activity”.
